Experimental findings from publication PMC6097439 (BMC Biology, 2018) are described below.

As usually defined, the Kd is a measure of binding affinity in units of concentration. A word on the koff: it is the rate constant with which the complex falls apart. As a reminder, the kon is the rate constant with which the complex forms.

In experiment [1] the target is Tie2, immobilized for SPR (human, UniProt Q02763 23-1124, Limits of the immobilized Tie2 are not printed. Taken as the mature extracellular domain (the text says extracellular domain of rhTie2 in the dual SPR experiment), ending at Lys745 as in commercial rh). Description: SPR; Tie2 immobilized, Ang2-BD variants as analytes; ProteOn XPR36; steady state fit; as previously described [54]. The following applies: both partners purified. Background: In SPR one partner is held on a chip, and binding of the other changes the refractive index at the surface.

The target in experiment [2] is T1, recombinant αvβ3 integrin (human, UniProt P06756 31-992; P05106 27-718).
T1 construct: human integrin αv subunit (Phe31-Val992); human integrin β3 subunit (Gly27-Asp718); also called solubilized αvβ3 integrin; αvβ3 integrin extracellular domain; source: bought: R&D Systems
Description: SPR; αvβ3 integrin immobilized by amine coupling (GLC chip), 12.5 to 200 nM Ang2-BD variants as analytes, 25 °C, IBB; 1:1 Langmuir model. The following applies: both partners purified.

Experiment [3] deals with αvβ3 integrin expressed on TIME cells (human (endogenous in TIME cells), UniProt P06756 31-1048; P05106 27-788). Description: cell-based or functional assay.
For experiment [4], the target named is Tie2 expressed on TIME cells (human (endogenous in TIME cells), UniProt Q02763 23-1124). Description: cell-based or functional assay.
Experiment [5] has as its target T2, recombinant α5β1 integrin (human, UniProt P08648 42-995; P05556 21-728).
T2 construct: human integrin α5 subunit, extracellular domain; human integrin β1 subunit, extracellular domain; source: bought: R&D Systems
The experiment in a line: SPR; integrins other than αvβ3 immobilized by amine coupling, 1 μM of the Ang2-BD variants as analyte, 25 °C, IBB. The following applies: both partners purified.

For experiment [6], the target named is T3, recombinant αvβ6 integrin (human, UniProt P06756 31-992; P18564 22-709).
T3 construct: human integrin αv subunit, extracellular domain; human integrin β6 subunit, extracellular domain; source: bought: R&D Systems
Description: SPR; αvβ5, αvβ1, αvβ6, αvβ8 integrins immobilized, 62.5 to 1000 nM Ang2-BDBC5 as analyte, 25 °C, IBB; two-state binding model. The following applies: both partners purified.

The target of experiment [7] is T4, recombinant αvβ1 integrin (human, UniProt P06756 31-992; P05556 21-728).
T4 construct: human integrin αv subunit, extracellular domain; human integrin β1 subunit, extracellular domain; source: bought: R&D Systems
The description is as above. The following applies: both partners purified.

Experiment [8] has as its target T5, recombinant αvβ8 integrin (human, UniProt P06756 31-992; P26012 43-684).
T5 construct: human integrin αv subunit, extracellular domain; human integrin β8 subunit, extracellular domain; source: bought: R&D Systems
The description is as above. The following applies: both partners purified.

The target in experiment [9] is T6, recombinant αvβ5 integrin (human, UniProt P06756 31-992; P18084 24-719).
T6 construct: human integrin αv subunit, extracellular domain; human integrin β5 subunit, extracellular domain; source: bought: R&D Systems
Described as above. The following applies: both partners purified.

T2 sequence (P08648 42-995, chain 1 of 2): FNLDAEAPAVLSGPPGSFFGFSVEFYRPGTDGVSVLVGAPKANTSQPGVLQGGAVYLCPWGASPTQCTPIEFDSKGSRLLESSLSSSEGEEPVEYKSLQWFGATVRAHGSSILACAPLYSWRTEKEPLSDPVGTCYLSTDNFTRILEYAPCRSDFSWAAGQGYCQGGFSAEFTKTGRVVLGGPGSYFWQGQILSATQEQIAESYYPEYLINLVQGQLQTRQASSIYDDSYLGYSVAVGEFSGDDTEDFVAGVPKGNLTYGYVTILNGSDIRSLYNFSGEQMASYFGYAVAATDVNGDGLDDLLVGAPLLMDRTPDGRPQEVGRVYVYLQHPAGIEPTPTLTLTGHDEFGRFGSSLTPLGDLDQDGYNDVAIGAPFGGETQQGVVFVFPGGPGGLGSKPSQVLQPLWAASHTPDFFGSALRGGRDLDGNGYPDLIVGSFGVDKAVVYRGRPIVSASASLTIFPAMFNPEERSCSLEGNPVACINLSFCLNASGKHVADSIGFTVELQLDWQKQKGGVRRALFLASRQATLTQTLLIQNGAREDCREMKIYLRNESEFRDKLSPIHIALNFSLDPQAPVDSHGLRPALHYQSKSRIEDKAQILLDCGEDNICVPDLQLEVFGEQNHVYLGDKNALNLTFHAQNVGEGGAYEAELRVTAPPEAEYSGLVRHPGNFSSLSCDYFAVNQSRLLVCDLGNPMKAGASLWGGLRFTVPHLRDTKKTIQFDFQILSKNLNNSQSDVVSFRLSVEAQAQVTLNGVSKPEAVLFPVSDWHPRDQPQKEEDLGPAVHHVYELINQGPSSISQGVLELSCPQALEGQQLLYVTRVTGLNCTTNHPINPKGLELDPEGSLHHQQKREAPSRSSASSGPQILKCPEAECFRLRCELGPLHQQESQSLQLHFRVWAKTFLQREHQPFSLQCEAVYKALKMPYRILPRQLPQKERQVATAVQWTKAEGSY
T2 sequence (P05556 21-728, chain 2 of 2): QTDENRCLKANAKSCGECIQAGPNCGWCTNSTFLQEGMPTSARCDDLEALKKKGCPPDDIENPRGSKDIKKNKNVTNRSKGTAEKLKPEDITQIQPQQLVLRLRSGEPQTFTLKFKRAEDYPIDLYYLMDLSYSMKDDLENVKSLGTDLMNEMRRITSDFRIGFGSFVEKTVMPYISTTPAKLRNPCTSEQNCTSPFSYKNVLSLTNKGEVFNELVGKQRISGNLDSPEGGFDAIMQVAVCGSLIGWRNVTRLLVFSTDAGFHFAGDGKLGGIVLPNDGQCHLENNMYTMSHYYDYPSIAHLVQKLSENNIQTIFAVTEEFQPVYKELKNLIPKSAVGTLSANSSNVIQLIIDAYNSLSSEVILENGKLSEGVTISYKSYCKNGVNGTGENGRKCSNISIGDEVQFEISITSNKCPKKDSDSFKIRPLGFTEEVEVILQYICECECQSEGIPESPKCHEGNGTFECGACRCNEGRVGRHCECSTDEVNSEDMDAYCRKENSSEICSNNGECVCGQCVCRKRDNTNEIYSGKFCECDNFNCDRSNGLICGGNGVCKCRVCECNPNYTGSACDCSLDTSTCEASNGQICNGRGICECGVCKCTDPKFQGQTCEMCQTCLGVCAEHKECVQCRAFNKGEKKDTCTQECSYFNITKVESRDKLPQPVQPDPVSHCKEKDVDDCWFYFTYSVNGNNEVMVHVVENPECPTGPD
T3 sequence (P06756 31-992, chain 1 of 2): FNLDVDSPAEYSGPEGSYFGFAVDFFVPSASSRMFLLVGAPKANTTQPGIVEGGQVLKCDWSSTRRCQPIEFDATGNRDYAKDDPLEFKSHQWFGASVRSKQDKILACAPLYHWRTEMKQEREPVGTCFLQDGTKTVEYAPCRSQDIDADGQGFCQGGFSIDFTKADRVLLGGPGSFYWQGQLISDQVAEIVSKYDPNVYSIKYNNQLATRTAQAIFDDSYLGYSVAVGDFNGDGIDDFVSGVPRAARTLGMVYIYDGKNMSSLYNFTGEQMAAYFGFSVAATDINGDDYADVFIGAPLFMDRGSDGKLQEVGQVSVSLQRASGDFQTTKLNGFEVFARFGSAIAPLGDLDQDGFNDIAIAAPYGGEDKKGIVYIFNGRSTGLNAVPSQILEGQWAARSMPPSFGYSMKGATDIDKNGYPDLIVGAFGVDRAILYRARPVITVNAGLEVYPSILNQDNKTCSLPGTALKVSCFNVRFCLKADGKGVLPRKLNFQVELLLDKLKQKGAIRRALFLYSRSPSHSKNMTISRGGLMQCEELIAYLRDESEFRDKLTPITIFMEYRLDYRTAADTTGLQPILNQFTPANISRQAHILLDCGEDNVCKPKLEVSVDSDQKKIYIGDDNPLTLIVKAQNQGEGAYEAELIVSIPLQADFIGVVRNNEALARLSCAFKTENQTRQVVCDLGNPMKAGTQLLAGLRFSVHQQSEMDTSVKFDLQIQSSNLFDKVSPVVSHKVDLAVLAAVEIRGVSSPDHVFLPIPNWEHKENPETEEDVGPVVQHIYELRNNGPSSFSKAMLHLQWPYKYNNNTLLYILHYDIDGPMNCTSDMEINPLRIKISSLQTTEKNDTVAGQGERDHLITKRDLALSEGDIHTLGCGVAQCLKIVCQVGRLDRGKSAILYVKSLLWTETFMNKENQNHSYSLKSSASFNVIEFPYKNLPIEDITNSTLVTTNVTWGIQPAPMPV
T3 sequence (P18564 22-709, chain 2 of 2): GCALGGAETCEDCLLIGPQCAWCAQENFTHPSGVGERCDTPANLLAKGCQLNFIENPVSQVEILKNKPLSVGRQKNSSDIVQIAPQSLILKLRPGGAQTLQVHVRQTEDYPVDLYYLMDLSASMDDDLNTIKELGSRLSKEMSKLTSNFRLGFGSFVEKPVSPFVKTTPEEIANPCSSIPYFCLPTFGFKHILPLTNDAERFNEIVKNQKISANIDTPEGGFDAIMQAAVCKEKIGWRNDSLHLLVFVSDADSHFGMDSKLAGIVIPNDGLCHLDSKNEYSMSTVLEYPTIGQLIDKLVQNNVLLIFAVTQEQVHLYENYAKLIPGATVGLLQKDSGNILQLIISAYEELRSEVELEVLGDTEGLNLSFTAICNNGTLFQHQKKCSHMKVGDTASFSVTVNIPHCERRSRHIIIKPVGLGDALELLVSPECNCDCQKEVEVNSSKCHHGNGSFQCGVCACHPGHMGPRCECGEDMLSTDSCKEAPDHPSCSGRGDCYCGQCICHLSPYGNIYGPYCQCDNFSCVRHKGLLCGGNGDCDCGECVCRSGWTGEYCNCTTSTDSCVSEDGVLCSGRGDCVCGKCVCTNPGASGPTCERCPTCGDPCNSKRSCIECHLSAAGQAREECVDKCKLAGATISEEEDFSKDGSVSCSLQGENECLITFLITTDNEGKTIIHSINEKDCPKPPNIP
T6 sequence (P06756 31-992, chain 1 of 2): as the sequence (P06756 31-992, chain 1 of 2) above
T6 sequence (P18084 24-719, chain 2 of 2): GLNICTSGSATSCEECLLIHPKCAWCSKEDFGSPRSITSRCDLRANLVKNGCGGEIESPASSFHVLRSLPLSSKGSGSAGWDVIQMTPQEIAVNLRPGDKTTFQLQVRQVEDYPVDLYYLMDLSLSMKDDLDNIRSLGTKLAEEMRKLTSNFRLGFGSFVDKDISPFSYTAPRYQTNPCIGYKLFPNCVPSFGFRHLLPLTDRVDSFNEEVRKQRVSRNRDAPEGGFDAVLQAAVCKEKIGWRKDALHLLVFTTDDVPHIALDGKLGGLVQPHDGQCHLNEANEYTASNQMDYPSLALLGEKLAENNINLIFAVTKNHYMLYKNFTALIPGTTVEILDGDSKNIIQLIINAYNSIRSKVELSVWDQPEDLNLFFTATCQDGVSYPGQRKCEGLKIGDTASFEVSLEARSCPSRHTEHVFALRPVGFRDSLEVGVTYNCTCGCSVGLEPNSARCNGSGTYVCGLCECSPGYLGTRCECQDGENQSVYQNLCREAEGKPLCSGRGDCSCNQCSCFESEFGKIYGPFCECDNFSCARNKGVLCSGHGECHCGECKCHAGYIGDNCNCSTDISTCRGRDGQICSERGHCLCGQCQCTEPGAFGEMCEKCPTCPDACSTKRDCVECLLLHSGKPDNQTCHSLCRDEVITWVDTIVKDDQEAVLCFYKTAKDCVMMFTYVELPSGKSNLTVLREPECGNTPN
T1 sequence (P06756 31-992, chain 1 of 2): as the sequence (P06756 31-992, chain 1 of 2) above
T1 sequence (P05106 27-718, chain 2 of 2): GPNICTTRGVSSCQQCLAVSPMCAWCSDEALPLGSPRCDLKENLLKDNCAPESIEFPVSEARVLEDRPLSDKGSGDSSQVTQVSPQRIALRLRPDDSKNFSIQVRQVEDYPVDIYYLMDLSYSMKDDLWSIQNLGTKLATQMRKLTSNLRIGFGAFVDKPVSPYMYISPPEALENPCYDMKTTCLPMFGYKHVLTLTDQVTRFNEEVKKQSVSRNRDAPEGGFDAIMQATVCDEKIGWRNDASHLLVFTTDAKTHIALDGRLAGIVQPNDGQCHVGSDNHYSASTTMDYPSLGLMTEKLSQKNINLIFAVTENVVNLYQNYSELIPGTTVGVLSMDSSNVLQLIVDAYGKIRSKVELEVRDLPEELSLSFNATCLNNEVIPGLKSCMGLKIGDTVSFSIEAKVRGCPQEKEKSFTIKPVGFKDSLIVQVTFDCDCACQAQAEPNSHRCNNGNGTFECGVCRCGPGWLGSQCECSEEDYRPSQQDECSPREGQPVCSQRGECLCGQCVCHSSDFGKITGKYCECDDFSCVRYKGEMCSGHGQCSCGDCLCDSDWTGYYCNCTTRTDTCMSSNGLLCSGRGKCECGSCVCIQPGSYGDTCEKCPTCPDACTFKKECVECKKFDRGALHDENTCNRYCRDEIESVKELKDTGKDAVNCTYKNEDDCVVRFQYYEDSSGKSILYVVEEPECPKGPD
T4 sequence (P06756 31-992, chain 1 of 2): as the sequence (P06756 31-992, chain 1 of 2) above
T4 sequence (P05556 21-728, chain 2 of 2): as the sequence (P05556 21-728, chain 2 of 2) above

B1: Ang2-BDWT, soluble protein (domain or fragment, UniProt O15123 281-496, looked up)
chain: FRDCAEVFKSGHTTNGIYTLTFPNSTEEIKAYCDMEAGGGGWTIIQRREDGSVDFQRTWKEYKVGFGNPSGEYWLGNEFVSQLTNQQRYVLKIHLKDWEGNEAYSLYEHFYLSSEELNYRIHLKGLTGTAGKISSISQPGNDFSTKDGDNDKCICKCSQMLTGGWWFDACGPSNLNGMYYPQRQNTNKFNGIKWYYWKGSGYSLKATTMMIRPADF
notes: The limits 281-496 are stated for the Ang2-BDWT gene; also called wild-type Ang2 BD; mono-specific Ang2-BDWT; source: Pichia (Multi-Copy Pichia Expression Kit), purified from yeast culture supernatant (HisTrap, Superdex 200)
Consider B1, for which the Kd in experiment [1] stood at 660 nM.

B2: Ang2-BDBC6, soluble protein (designed binder)
chain: FRDCAEVFKSGHTTNGIYTLREGRGDNVDIKAYCDMEAGGGGWTIIQRREDGSVDFQRTWKEYKVGFGNPSGEYWLGNEFVSQLTNQQRYVLKIHLKDWEGNEAYSLYEHFYLSSEELNYRIHLKGLTGTAGKISSISQPGNDFSTKDGDNDKCICKCSQMLTGGWWFDACGPSNLNGMYYPQRQNTNKFNGIKWYYWKGSGYSLKATTMMIRPADF
notes: also called Ang2-BD bi-specific variant; source: Pichia (Multi-Copy Pichia Expression Kit), purified from yeast culture supernatant (HisTrap, Superdex 200)
Take B2: the Kd in experiment [1] was 1260 nM. Besides, in [2], the dissociation constant Kd came out at 2.97 nM, the off-rate (koff) was 0.000236 s⁻¹ and the association rate constant (kon) was found to be 79400 M⁻¹ s⁻¹. Moreover, in experiment [3], the “decrease in adhesion of TIME cells to vitronectin-coated plates, 1 μM variant, with 500 ng/ml FL-Ang1 (blocks αvβ3 integrin on vitronectin)” value is 35% and the “decrease in adhesion of TIME cells to vitronectin-coated plates, 1 μM variant, without FL-Ang1 (blocks αvβ3 integrin on vitronectin)” value was determined as 39%. Also, in experiment [4], the “decrease in Tie2 phosphorylation intensity, TIME cells on vitronectin, 500 ng/ml FL-Ang1 with 1 μM variant (blocks FL-Ang1 on Tie2)” value (shortened to “decrease … (blocks FL-Ang1 on Tie2)”) was determined as 64%. In addition, the binding result in [5] is on record as “binds”.

B3: Ang2-BDBC5, soluble protein (designed binder)
chain: FRDCAEVFKSGHTTNGIYTLNTCRGDCLPIKAYCDMEAGGGGWTIIQRREDGSVDFQRTWKEYKVGFGNPSGEYWLGNEFVSQLTNQQRYVLKIHLKDWEGNEAYSLYEHFYLSSEELNYRIHLKGLTGTAGKISSISQPGNDFSTKDGDNDKCICKCSQMLTGGWWFDACGPSNLNGMYYPQRQNTNKFNGIKWYYWKGSGYSLKATTMMIRPADF
notes: as for B2
Regarding B3, the Kd in experiment [1] was 1360 nM. Besides, in experiment [2], the Kd was found to be 14.9 nM, the koff worked out at 0.000444 s⁻¹ and the kon amounted to 29900 M⁻¹ s⁻¹. In experiment [6], the equilibrium dissociation constant (Kd) amounted to 364 nM; the “Koff1 (two-state model, step 1)” value turned out to be 0.00835 s⁻¹; the “Koff2 (two-state model, step 2)” value worked out at 0.00106 s⁻¹; the “Kon1 (two-state model, step 1)” value amounted to 22900 M⁻¹ s⁻¹. The “Kon2 (two-state model, step 2)” value in experiment [6] came out at 0.0032 s⁻¹. In experiment [7], the Kd worked out at 550 nM; the “Koff1 (two-state model, step 1)” value turned out to be 0.00629 s⁻¹; the “Koff2 (two-state model, step 2)” value was found to be 0.00197 s⁻¹; the “Kon1 (two-state model, step 1)” value amounted to 11400 M⁻¹ s⁻¹. For the same molecule, in experiment [7], the “Kon2 (two-state model, step 2)” value stood at 0.00304 s⁻¹. Further, in [8], the Kd amounted to 138 nM; the “Koff1 (two-state model, step 1)” value came out at 0.00505 s⁻¹; the “Koff2 (two-state model, step 2)” value amounted to 0.00215 s⁻¹; the “Kon1 (two-state model, step 1)” value was determined as 36600 M⁻¹ s⁻¹. Also, the “Kon2 (two-state model, step 2)” value in experiment [8] turned out to be 0.0024 s⁻¹. Further, in [9], the Kd was determined as 65 nM; the “Koff1 (two-state model, step 1)” value is 0.00259 s⁻¹; the “Koff2 (two-state model, step 2)” value was 0.00035 s⁻¹; the “Kon1 (two-state model, step 1)” value stood at 39800 M⁻¹ s⁻¹. For the same molecule, the “Kon2 (two-state model, step 2)” value in experiment [9] was found to be 0.00544 s⁻¹. Also, in [3], the “decrease in adhesion of TIME cells to vitronectin-coated plates, 1 μM variant, with 500 ng/ml FL-Ang1 (blocks αvβ3 integrin on vitronectin)” value stood at 53% and the “decrease in adhesion of TIME cells to vitronectin-coated plates, 1 μM variant, without FL-Ang1 (blocks αvβ3 integrin on vitronectin)” value worked out at 30%. The “decrease … (blocks FL-Ang1 on Tie2)” value in experiment [4] came to 67%. Also, the binding result in experiment [5] was “binds”.

B4: Ang2-BDBC10, soluble protein (designed binder)
chain: FRDCAEVFKSGHTTNGIYTLYPGRGDNPDIKAYCDMEAGGGGWTIIQRREDGSVDFQRTWKEYKVGFGNPSGEYWLGNEFVSQLTNQQRYVLKIHLKDWEGNEAYSLYEHFYLSSEELNYRIHLKGLTGTAGKISSISQPGNDFSTKDGDNDKCICKCSQMLTGGWWFDACGPSNLNGMYYPQRQNTNKFNGIKWYYWKGSGYSLKATTMMIRPADF
notes: as for B2
For the molecule B4, binding in experiment [1] was characterised by a dissociation constant (Kd) of 950 nM. In addition, in experiment [2], the dissociation constant (Kd) was determined as 4.17 nM, the dissociation rate constant (koff) turned out to be 0.000429 s⁻¹ and the on-rate (kon) turned out to be 103000 M⁻¹ s⁻¹. In addition, in experiment [3], the “decrease in adhesion of TIME cells to vitronectin-coated plates, 1 μM variant, with 500 ng/ml FL-Ang1 (blocks αvβ3 integrin on vitronectin)” value is 37% and the “decrease in adhesion of TIME cells to vitronectin-coated plates, 1 μM variant, without FL-Ang1 (blocks αvβ3 integrin on vitronectin)” value turned out to be 47%. Also, the “decrease … (blocks FL-Ang1 on Tie2)” value in experiment [4] worked out at 67%. Besides, the binding result in experiment [5] is reported as “binds”.
